# Assay results as given in US11789012B2, “Cell death biomarker” (UCL Business PLC, priority 2016, dated 2023).
# B1: rTRAIL: recombinant protein that activates the TRAIL pathway by binding to TRAIL-R1 (DR 4) and TRAIL-R2 (DR 5) (protein, UniProt P50591 1-281, looked up)
# Tumor necrosis factor ligand …: MAMMEVQGGPSLGQTCVLIVIFTVLLQSLCVAVTYVYFTNELKQMQDKYSKSGIACFLKEDDSYWDPNDEESMNSPCWQVKWQLRQLVRKMILRTSEETISTVQEKQQNISPLVRERGPQRVAAHITGTRGRSNTLSSPNSKNEKALGRKINSWESSRSGHSFLSNLHLRNGELVIHEKGFYYIYSQTYFRFQEEIKENTKNDKQMVQYIYKYTSYPDPILLMKSARNSCWSKDAEYGLYSIYQGGIFELKENDRIFVSVTNEHLIDMDHEASFFGAFLVG
# Legend:
# H2373 = assay: rTRAIL response, viability assay, H2373; assay type: cell-based, Human; conditions: BAP1 Wild-type
# Method: (§1) Manual “single dose” combination screening was undertaken using 96 well formats. Cells were plated on day 1 in previously optimized seeding densities in 180 μl if media. On day 2 20 μl of a 10× concentration of […] was added. Cells were then allowed to grow for 72 hrs or 6 days and fixed at the end of the assay. Drug wells were compared to DMSO treated control wells.
# (§2) Single agent high throughput 5 point viability screening was undertaken in 384 well formats using robotic liquid handling with fixing with 4% paraformaldehyde and staining for viability with Syto60 nucleic acid dye (Invitrogen) (see below). Single agent dose response curves were derived for each library of 85-95 drugs according to the experiment used, and log IC50 or area under the curve (AUC) metrics were derived for each library compound in each cell line according to a previously derived formula [18].
# (§3) Adherent cell lines were seeded 24 hours before drugging. Cells were trypsinised and counted before seeding at the optimal density for the size of well (96 or 384) and duration of assay. 72 hr after drug treatment cells were fixed with 4% paraformaldehyde for 30 minutes. […] Quantification of fluorescent signal was achieved using excitation/emission wavelength of 630/695 […].
# H2591 = assay: rTRAIL response, viability assay, H2591; assay type: cell-based, Human; conditions: BAP1 Wild-type
# Method: as §1, §2, §3
# H2810 = assay: rTRAIL response, viability assay, H2810; assay type: cell-based, Human; conditions: BAP1 Wild-type
# Method: as §1, §2, §3
# H2818 = assay: rTRAIL response, viability assay, H2818; assay type: cell-based, Human; conditions: BAP1 Wild-type
# Method: as §1, §2, §3
# H2869 = assay: rTRAIL response, viability assay, H2869; assay type: cell-based, Human; conditions: BAP1 Wild-type
# Method: as §1, §2, §3
# H513 = assay: rTRAIL response, viability assay, H513; assay type: cell-based, Human
# Method: as §1, §2, §3
# NCI-H2052 = assay: rTRAIL response, viability assay, NCI-H2052; assay type: cell-based, Human; conditions: BAP1 Wild-type
# Method: as §1, §2, §3
# [1] = system: BAP1 mutant cell lines (H2722, H2461, H28 and H2731); assay: Annexin V/DAPI cell death assay, BAP1 mutant cell lines; assay type: cell-based, Human; conditions: TRAIL 0-1000 ng/ml, 24 hours
# Method: MPM cell lines were treated with a dose range from 0.5 ng/ml to 100 ng/ml and cell viability was measured using Syto-60 assay. Based on their cell viability, the cell lines were classified into resistant (red), partially sensitive (orange) and sensitive (green). Cell lines were western blotted to probe the expression of BAP1 protein expression. […] Three BAP1 wild-type cell lines (MPP-89, H2869 & H2818) and four BAP1 mutant cell lines (H2722, H2461, H28 and H2731) were treated with TRAIL (0-1000 ng/ml) for 24 hours and cell death quantified using an Annexin V/DAPI cell death assay.
# Adherent mesothelioma cell lines were plated in a 96 well plate at approximately 10000 cells per well. Cells were plated and given 1 day to adhere at which time drug was added. After 48 hrs media, including floating cells, was collected from each well. The remaining adherent cells were washed with PBS and mobilised with 0.05% trypsin in EDTA. All cells were collected into tubes containing the previously removed media and pelleted by centrifugation (300 g, 5 minutes). […] Annexin V−/DAPI− cells were judged to be viable, AnnexinV+/DAPI− cells were considered to be undergoing apoptosis (early apoptotic phase), and Annexin V+/DAPI+ cells were considered late apoptotic or necrotic, and recorded as dead.
# RCC10RGB = assay: rTRAIL viability, renal cell cancer cell line RCC10RGB; assay type: cell-based; conditions: BAP1 missense mutation
# Excerpt: FIG. 8A is a graph showing the effect of rTRAIL on the viability of various cancer cell lines. Bladder (RT4) and Breast (HCC1187) cancer cell lines with nonsense mutations in BAP1 show sensitivity to rTRAIL while renal cell cancer cell lines (769P & RCC10RGB) with missense mutation and wild-type renal (BB65RCC) and bladder cancer (SW1710) cell lines are resistant to TRAIL.
molecule,measurement,setting,value
B1,rTRAIL response,H2373,Resistant
same,rTRAIL response,H2591,Resistant
same,rTRAIL response,H2810,Resistant
same,rTRAIL response,H2818,Resistant
same,rTRAIL response,H2869,Resistant
same,rTRAIL response,H513; BAP1 Wild-type,Resistant
same,TRAIL sensitivity,H513; BAP1 wild-type and ASXL3 mutant (truncating mutation),sensitive
same,rTRAIL response,NCI-H2052,Resistant
same,fraction of cells stained with Annexin V,[1],increased fraction of cells stained with the apoptotic marker Annexin V
same,response to TRAIL (viability),RCC10RGB,resistant
